According to a protein production outcome set (Wang et al. 2014):

Test: label from the status in PepcDB records

Sequence | protein production
MKQGKISDYVNPVPIKITDDKAIFKVEKLVPTPYIERVLPLEYAPLYEQLAELDTAIPKIVCLEKSDRLTVIEEYIDSPRLDQYLETHKLTSAQIHDLICQLLDVLAVLHQQIPPIIHRDIKPENIFYDGQKLILADFDIARNMQEDADRDTRILGSVGYAAPEQFGFSQSGPASDFYAVGVLMNVLYTGYLPSVRLYKGPEREIIEKATHINSQKRYQSAQEFKDAITGLGRSSWLLPGFRSHQPARMLTAGCGYLLMLFSSFSMDAKSDSAADSFLLRLSFFMVLFLIVLFACNYRNIKSICLFHSSKSKFTRACGIIISYLLVATVLTTALAALSVAISSFGH | failed
METLILTQEEVESLISMDEAMNAVEEAFRLYALGKAQMPPKVYLEFEKGDLRAMPAHLMGYAGLKWVNSHPGNPDKGLPTVMALMILNSPETGFPLAVMDATYTTSLRTGAAGGIAAKYLARKNSSVFGFIGCGTQAYFQLEALRRVFDIGEVKAYDVREKAAKKFVSYCEDRGISASVQPAEEASRCDVLVTTTPSRKPVVKAEWVEEGTHINAIGADGPGKQELDVEILKKAKIVVDDLEQAKHGGEINVAVSKGVIGVEDVHATIGEVIAGLKDGRESDEEITIFDSTGLAIQDVAVAKVVYENALSKNVGSKIKFFRI | not failed
MTHEAMSPGEWKAKGGGLTIRYGFHASPFGLALVMITDRGLAGCAFADPGDERACFEDMAGRWPNADYVEDREATAPYAARIFEPAMWTADKPLRVVLEHHHHHH | not failed
MKVLDSRDFAKVKAIAIERASYRNIGALAVYIGSMTGMRISEVLALTWPDIDTKLCVIHVTRSWDHLYGTGFKPTKTDSSVRDIEISPSVIELLNKIHQEQAASYLRTGYRDEDQMIMRDPRHNVITDSACNKALHVIQNKAGIPEDKQITFHGLRHSHVSYLISKGVDIYYISKRLGHSDVTITMKVYGHLLDSQRKQEAHKAVLFMDQILEHHHHHH | failed
MQRKGDTPATLDLFADQTPQPRRDEQIGPGSWLFSGFALPAMPTLLLALEQTLGHSPFRHMLTPGGLSMSAALSSCGPLGWITDRHGYRYSDVDPQTGQPWPAMPDAFMQLAQSAALAAGYRGFVPDACLINRYIPGAKMSLHQDKDEHDHRWPVVSVSLGIPAIFQFGGMQRSDKTRRISLFHGDVVVWGGEDRLRFHGILPIKQAEHPLLGEQRINLTFRKAGRDSLEHHHHHH | not failed
MISGNTINHKNNMAGLKSLVKDTALYGLSSMVGRFLNYLLVPLYTAVLPAASGGYGVVTNVYAWAGLIMVLLTFGMETGFFRFANKSEEDPVKVYANSLISVGGISLIFAILCLTFLQPVSHLLEYGDHPDFIGMMIIVMALDAFLCIPFAYLRFKKRPIKFVAIKFVSIIANIVLNLFFLLLCPWLHEHFPAWVDWFYNPTYLVGYIFVSNLITTCLQLFCLIPELRGFAYRVDKQLLKRMLIYSFPILIFGLVGILNQTVDKIIYPFLFADRQEGLVQLGIYGAATKIAMVMAMFTQAFRYAYEPFVFGKQKEGDNRRMYAQAMKYFLIFAMFAFLVVMFYLDLLRYMVAPDYWAGLSVVAIVIGAEIFKGIYFNLSFWYKLIDETRWGAYFSIVGCVIIVGMNVMLVPTYGFVASAWASVAGYAVITILSYWIGQKKYPIHYDLKHLGTYVLFTAVLYVIGEWVPIENIVLRLAFRTVLLLIFMAYVVRKDLPLSQIPVINRIIKKK | failed
MKKTPIYVEISIQAEMERLWRYTQDPTLHRQWDLRFTDITYLKRRPGEPQRFLYETRIGFGLKISGTGESAGNVFQDTGDRVSSLKFATNHPLSVIREGRGYWKYSESETGITFMTQYDYDTRYGRLGRLADMAFRPLLGWATAWSFDALKIWLEKGLHPRLLFQKTLVYWLVCLLFSFVWIYQGLVPKLIMAHPGEISMLSAFTGGRFHPETLLRLIGLAEVMVGVLWLYPVRKRKWFLLHIVLLVLLSASAGMADIASFAEPFNPVVLNAALIILSVIGYVSACGIPNAGNTIRKRR | failed
MTPFPHASLFTPHSSRITPSLHLPVRLGNATFDTRHRTALTMSADRLEQLKTFHEEDPEDPFTRYALAQEHLKHDNASRALALFEELVETDPDYVGTYYHLGKLYERLDRTDDAIDTYAQGIEVAREEGTQKDLSELQDAKLKAEGVGFD | failed
MLEHAAGQPWIYPVLLVFFFIDGFATILPSETAIVGLSALSLHSGEPNLWILGGTALVGAMAGDNMAYMLGRKIGLTRWKWMRRPKVQKMFAWAQYELDKRGAVLIFTARYIPWGRVAVNYVAGQTGFRHRTFFWLDAFACITWVGYSIGIGLLAGQWVHHNPLLGVGIAVAFAVVLGIVVDHALRWWHKYLEKKDVAREAAASSEVKVAEPADLSQKAVAGADLSKPAG | failed
